According to publication PMC3791465:

Molecular target: 6 × His-tagged recombinant PHB2, Q99623
Experiment: SPR

Sequence of 6 × His-tagged recombinant PHB2, Q99623 (Q99623 whole entry): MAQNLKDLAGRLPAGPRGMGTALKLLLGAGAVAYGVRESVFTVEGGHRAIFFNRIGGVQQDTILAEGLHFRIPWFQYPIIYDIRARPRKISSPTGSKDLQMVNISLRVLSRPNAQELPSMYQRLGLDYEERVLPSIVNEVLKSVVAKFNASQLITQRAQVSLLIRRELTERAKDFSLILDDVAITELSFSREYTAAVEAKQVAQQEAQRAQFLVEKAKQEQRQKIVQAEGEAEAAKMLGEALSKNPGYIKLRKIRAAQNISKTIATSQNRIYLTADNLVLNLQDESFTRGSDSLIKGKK

B1: ERα activity-regulator synthetic peptide (ERAP) (peptide)
chain: QMLSDLTLQLRQR
modifications: not checked
  Kd: 18.9 µM
